Measurements published in publication PMC7374170, “TRIB3-EGFR interaction promotes lung cancer progression and defines a therapeutic target” (Nature Communications, 2020).

Target: TRIB3 (tribbles pseudokinase 3), purified protein (UniProt Q96RU7)
Experiment: FP

Sequence of TRIB3 (tribbles pseudokinase 3), purified protein (Q96RU7 whole entry): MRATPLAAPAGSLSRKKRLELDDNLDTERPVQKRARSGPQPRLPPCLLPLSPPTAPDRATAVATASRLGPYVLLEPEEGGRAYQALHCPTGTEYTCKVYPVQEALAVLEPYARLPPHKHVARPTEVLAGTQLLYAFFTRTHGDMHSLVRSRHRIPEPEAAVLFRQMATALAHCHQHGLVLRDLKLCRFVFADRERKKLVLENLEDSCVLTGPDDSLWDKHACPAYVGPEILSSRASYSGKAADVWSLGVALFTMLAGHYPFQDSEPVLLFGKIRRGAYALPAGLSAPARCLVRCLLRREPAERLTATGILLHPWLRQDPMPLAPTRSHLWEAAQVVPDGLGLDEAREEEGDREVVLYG

## SAH-JGZ4, stapled JGZ peptide (from UniProt P00533)
  IC50: 90.3 nM
  Ki: 27.7 nM
